Results as given in US20100267638A1, “EXOSITE-DIRECTED THROMBIN INHIBITORS” (CLEVELAND STATE UNIVERSITY, priority 2003, published 2010).
No end group written: not given here. *: point of attachment. SO3 = O=S(=O)(O)*

How the values were obtained:
[1] = biological target: T1, prothrombinase (Homo sapiens, UniProt P00734); assay: Assay measuring thrombin formation (prothrombinase inhibition by peptides, DAPA fluorescence); format: biochemical
T1 construct: purchased Haematologic Technologies Inc. (Essex Junction, Vt.)
Description: Assay measuring thrombin formation. The formation of thrombin was analyzed using the fluorescent thrombin inhibitor DAPA as described using a Perkin Elmer LS-50B Luminescence Spectrometer (Perkin-Elmer LLC, Norwalk Conn.) with λex=280 nm, λem=550 nm and a 500 nm long pass filter in the emission beam (Schott KV-500). […] In all cases peptides were preincubated with factor tor Va prior to the assay as described in the legend to the figures. The final concentration of factor tor Va in the mixture was 4 nM with factor Xa at 10 nM, prothrombin at 350 nM, DAPA at 700 nM, in the presence of PCPS vesicles (10 μM). The initial rate of thrombin formation (nM IIa·min^−1) was calculated as described during the initial 5-10 sec of the reaction. To verify if the peptides have any effect on the active-site of thrombin, control experiments were performed as follows: a given peptide (at 100 μM) was incubated in the assay buffer containing DAPA (700 nM); the base line was monitored for 30 sec; thrombin (350 nM) was then added to the mixture and the fluorescent intensity resulting from the complexation of DAPA with the active site of thrombin was monitored for 60 sec. The slope of the reaction measuring thrombin formation in the presence of a given peptide during the first 5 sec was calculated and compared to the slope of a reaction obtained in the absence of peptide. It is noteworthy that under the conditions employed the thrombin-DAPA interaction occurred fast and the calculated slope of the reaction was sensitive to all parameters used. […] All experiments were performed in triplicates or as indicated. The concentration of each peptide given in the figures and figure legends is their final concentration in the assay. […] In some cases the data were also analyzed and plotted using DeltaGraph (DeltaPoint, Monterey, Calif.).
Specifically, peptides were incubated with factor tor Va as described herein at a fixed concentration (100 μM). The percent of factor tor Va cofactor activity was calculated by comparing the activity of prothrombinase in the presence of a given peptide to the activity of prothrombinase determined in a control reaction in the absence of peptide and in the presence of factor Xa. […] The control peptide represents a pentadecapeptide from the middle portion of factor tor Va heavy chain (P15H) (SEQ ID NO. 22). […] All other peptides from region 680-709 had no significant effect on prothrombinase activity.
HC3 represents amino acid sequence 690-699 of factor tor Va heavy chain; HC4 contains the sequence 695-704 of human factor tor Va heavy chain; P15H represents amino acid sequence 337-351 from the middle portion of human factor tor Va heavy chain. […] The concentration of each peptide given on the x axis represents its final concentration in the prothrombinase mixture. […] Thus, both peptides show similar inhibitory potential.

[2] = biological target: intrinsic tenase (Homo sapiens, UniProt P00451+P00740); assay: Inhibition of intrinsic tenase; format: biochemical; settings: FIG. 11A
Sequence of intrinsic tenase (P00740 227-461 limits assumed): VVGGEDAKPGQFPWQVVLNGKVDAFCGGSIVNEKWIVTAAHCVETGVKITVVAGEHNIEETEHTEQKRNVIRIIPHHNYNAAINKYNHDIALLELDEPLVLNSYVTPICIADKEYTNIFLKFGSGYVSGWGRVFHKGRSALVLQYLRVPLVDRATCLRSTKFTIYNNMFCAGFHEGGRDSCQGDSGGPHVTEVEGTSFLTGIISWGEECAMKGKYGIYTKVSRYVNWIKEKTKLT
Sequence of intrinsic tenase (P00451 1709-2351 limits assumed): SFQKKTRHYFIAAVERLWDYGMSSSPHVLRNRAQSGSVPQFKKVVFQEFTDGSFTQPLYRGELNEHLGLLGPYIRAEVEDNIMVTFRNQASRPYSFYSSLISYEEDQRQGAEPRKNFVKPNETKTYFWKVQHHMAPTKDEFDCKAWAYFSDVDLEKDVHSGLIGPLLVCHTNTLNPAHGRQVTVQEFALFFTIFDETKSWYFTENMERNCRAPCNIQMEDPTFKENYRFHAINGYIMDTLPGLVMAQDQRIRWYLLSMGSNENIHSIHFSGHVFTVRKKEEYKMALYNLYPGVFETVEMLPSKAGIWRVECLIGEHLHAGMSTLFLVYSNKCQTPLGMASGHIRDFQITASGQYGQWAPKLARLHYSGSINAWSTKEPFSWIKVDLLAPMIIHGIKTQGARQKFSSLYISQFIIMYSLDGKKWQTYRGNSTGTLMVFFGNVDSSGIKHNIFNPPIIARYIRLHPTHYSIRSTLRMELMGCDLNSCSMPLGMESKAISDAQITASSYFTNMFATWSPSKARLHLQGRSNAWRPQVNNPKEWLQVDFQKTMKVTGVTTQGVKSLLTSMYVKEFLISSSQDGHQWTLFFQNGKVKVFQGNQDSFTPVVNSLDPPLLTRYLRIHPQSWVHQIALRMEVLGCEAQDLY
Excerpt: FIG. 11A illustrates inhibition of intrinsic tenase by the double sulfonated peptide DYDYQ (1, 2) (SEQ ID NO. 9). […] As is shown in FIG. 11A, as the concentration of DYDYQ (1, 2) is increased, the reduction in activity is dramatic.
FIG. 11B and its insert panel illustrate the effect of increasing concentration of the peptide DYDYQ (1, 2) (SEQ ID NO. 9) upon the reaction kinetics of intrinsic tenase. Specifically, this figure illustrates the kinetics of inhibition of intrinsic tenase in the presence of the double sulfonated peptide DYDYQ (1, 2). In FIG. 11B, the data are plotted as Vo (initial velocity in arbitrary units) as a function of increasing factor X concentration in the presence of increasing concentration of DYDYQ (1, 2). The concentrations of DYDYDQ (1, 2), in addition with factor VIIIa, are 10 nM (filled triangles), 25 nM (filled diamonds), and 50 nM (filled circles). Control curves of factors VIIIa and IXa (filled squares) and factor IXa (inverted triangles) are also noted. The insert panel of FIG. 11B is presented for greater clarity and details the region of factor X concentration up to 300 nM, and without the curve of 50 nM of DYDYQ (1, 2).

[3] = Clotting time as a function of peptide concentration (FIG. 12); settings: peptide 500 nM
Excerpt: FIG. 12 is a graph illustrating clotting time as a function of concentration of various peptides of interest as follows: DYDYQ (SEQ ID NO. 11) (filled squares); DYDYQ (1, 2) (or as designated in shorthand form, D5Q1,2) (SEQ ID NO. 9) (filled triangles); DYDYQ-1 (SEQ ID NO. 7) (filled inverted triangles); and DYDYQ-2 (SEQ ID NO. 8) (filled diamonds).

[4] = biological target: T2, thrombin (Homo sapiens, UniProt P00734); assay: Inhibition of activation of factor VIII by thrombin (SDS-PAGE); format: biochemical; design: Factor Xa cleaves prothrombin to form thrombin; settings: FIG. 9A
Excerpt: Specifically, FIG. 9A illustrates the inhibition of activation of factor VIII by thrombin, the inhibition resulting from the double sulfonated peptide DYDYQ (1, 2) (SEQ ID NO. 9) binding to thrombin. FIG. 9B illustrates the inhibition of activation of factor V by thrombin, the inhibition resulting from the double sulfonated peptide DYDYQ (1, 2) (SEQ ID NO. 9) binding to thrombin. FIGS. 9A and 9B result from analysis by SDS-PAGE as previously described with regard to FIG. 4(A and B). […] The various fragments of each factor are noted on the right hand side of each figure.

[5] = biological target: T2, thrombin; assay: Activation of plasma factor V by thrombin preincubated with peptide (SDS-PAGE, immunoblotting); format: biochemical; design: Factor Xa cleaves prothrombin to form thrombin; purchased Haematologic Technologies Inc. (Essex Junction, Vt.); settings: FIG. 9B
Description: Gel Electrophoresis and western blotting. Sodium dodecyl sulfate polyacrylamide gel electrophoresis (SDS-PAGE) analyses were performed using 4-12% gradient gels according to the method of Laemmli. In several experiments, proteins were transferred to polyvinylidene difluoride (PVDF) membranes according to the method described by Towbin et al. After transfer to nitrocellulose, factor V heavy and light chain(s) were detected using the appropriate monoclonal and polyclonal antibodies. Immunoreactive fragments were visualized with chemiluminescence.
Factor V (250 nM) was incubated with thrombin (1 nM). And FIG. 4B illustrates thrombin (1 nM) was preincubated with 100 μM peptide DYDYQ and the mixture was added to factor V (250 nM). […] Fragments were identified following staining with monoclonal antibody αHFV#17 that recognizes an epitope between amino acid residues 307-506 of factor V and chemiluminescence as described. Lane 1 in both panels depicts aliquots of the mixture withdrawn from the reaction before the addition of thrombin or thrombin/peptide mixture while lanes 2-7 show aliquots of the reaction mixture withdrawn at 30 sec, 1 min, 3 min, 5 min, 10 min, 15 min following the addition of thrombin alone or of thrombin/peptide mixture. The time of incubation is shown at the bottom of the figure. Position of the molecular weight markers is indicated at left.

## DY(—SO3)DY(−SO3)Q (DY(SO3)DY(SO3)Q) [DYDYQ-1,2, double sulfonated peptide DYDYQ]
[1]; FIG. 10A
  rank of inhibitory effect on prothrombinase among peptides: greatest inhibitory effect
[1]; FIG. 10A, up to 8000 nM
  inhibition of prothrombinase activity with increasing peptide: significant inhibitory effects
[1]; kinetic analyses, increasing prothrombin and peptide
  type of inhibition of prothrombinase with respect to prothrombin: competitive inhibition mechanism
[2]
  inhibition of intrinsic tenase: dramatic reduction
[3]
  clotting time: relatively long clotting times
  rank of clotting time among peptides: longest clotting time
[4]
  inhibition of activation of factor VIII by thrombin: potent inhibitor
[5]
  inhibition of activation of factor V by thrombin: potent inhibitor
